Target: HA-NRX2αS1(+) S2(+) S3(+) S4(−) (extracellularly HA-tagged neurexin2α without the insert at splice site 4) (mouse) (UniProt E9Q7X7)
Experiment: cell surface binding assay; Scatchard plot analysis of IgSF21-Fc bound to COS-7 cells expressing HA-NRX2αS4(-), n = 30 cells

Kd: 21 nM
Substance: IgSF21-Fc (ectodomain of rat IgSF21 fused to the human immunoglobulin Fc region) (from UniProt M0RAS4 25-448) (Fc fusion)

— publication PMC5581337
